PMC11021511 (Nature Communications, 2024)

How the values were obtained:
Test in all cases: affinity purification with mass spectrometry; ESK1 antibody cross-linked to Protein A/G beads as bait; lysate of primary human liver tissue (0.5% IGEPAL 630, 50 mM Tris pH 8.0, 150 mM NaCl), at least 5 h at 4 °C; washes with 150 mM NaCl, 450 mM NaCl and no salt; peptides eluted with 10% acetic acid, 5 kDa filter, LC-MS2; enrichment against the MAGE-A4 antibody as control; triplicates
Conditions in all cases: one partner purified
[1] = molecular target: T1, HLA-A*02:01 in complex with peptide ARHGEF26_(863-871) (…) (Homo sapiens, HLA-A*02:01)
T1 construct: HLA class I heavy chain, allele HLA-A*02:01, human; beta-2-microglobulin, human; The presenting allele is assigned by NetMHCpan 4.1 prediction (rank <= 2); source: peptide pulsed on T2 cells (JNFAT assay); copies: + +

[2] = molecular target: T2, HLA-A*02:01 in complex with peptide CRYL1_(130-138) (…) (Homo sapiens, HLA-A*02:01)
T2 construct: HLA class I heavy chain, allele HLA-A*02:01, human; beta-2-microglobulin, human; The presenting allele is assigned by NetMHCpan 4.1 prediction (rank <= 2); source: peptide pulsed on T2 cells (JNFAT assay); copies: + +

[3] = molecular target: T3, HLA-A*02:01 in complex with peptide MSMO1_(164-172) (…) (Homo sapiens, HLA-A*02:01)
T3 construct: HLA class I heavy chain, allele HLA-A*02:01, human; beta-2-microglobulin, human; The presenting allele is assigned by NetMHCpan 4.1 prediction (rank <= 2); source: peptide pulsed on T2 cells (JNFAT assay); copies: + +

[4] = molecular target: T4, HLA-A*02:01 in complex with peptide CYP2C8_(59-67) (…) (Homo sapiens, HLA-A*02:01)
T4 construct: HLA class I heavy chain, allele HLA-A*02:01, human; beta-2-microglobulin, human; Cytochrome P450 2C8, human, residues 59-67; The presenting allele is assigned by NetMHCpan 4.1 prediction (rank <= 2); source: peptide pulsed on T2 cells (JNFAT assay); copies: + +

[5] = molecular target: T5, HLA-A*02:01 in complex with peptide USP9Y_(1674-1682) (…) (Homo sapiens, HLA-A*02:01)
T5 construct: HLA class I heavy chain, allele HLA-A*02:01, human; beta-2-microglobulin, human; The presenting allele is assigned by NetMHCpan 4.1 prediction (rank <= 2); source: peptide pulsed on T2 cells (JNFAT assay); copies: + +

[6] = molecular target: T6, HLA-A*02:01 in complex with peptide PLG_(92-100) (…) (Homo sapiens, HLA-A*02:01)
T6 construct: HLA class I heavy chain, allele HLA-A*02:01, human; beta-2-microglobulin, human; Plasminogen, human, residues 92-100; The presenting allele is assigned by NetMHCpan 4.1 prediction (rank <= 2); source: peptide pulsed on T2 cells (JNFAT assay); copies: + +

[7] = molecular target: T7, HLA-A*02:01 in complex with peptide MAF_(116-124) (…) (Homo sapiens, HLA-A*02:01)
T7 construct: HLA class I heavy chain, allele HLA-A*02:01, human; beta-2-microglobulin, human; The presenting allele is assigned by NetMHCpan 4.1 prediction (rank <= 2); source: peptide pulsed on T2 cells (JNFAT assay); copies: + +

[8] = molecular target: T8, HLA-A*02:01 in complex with peptide ALDOA_(216-224) (…) (Homo sapiens, HLA-A*02:01)
T8 construct: HLA class I heavy chain, allele HLA-A*02:01, human; beta-2-microglobulin, human; The presenting allele is assigned by NetMHCpan 4.1 prediction (rank <= 2); source: peptide pulsed on T2 cells (JNFAT assay); copies: + +

[9] = molecular target: T9, HLA-A*02:01 in complex with peptide HNRNPA1_(15-23) (…) (Homo sapiens, HLA-A*02:01)
T9 construct: HLA class I heavy chain, allele HLA-A*02:01, human; beta-2-microglobulin, human; Heterogeneous nuclear ribonucleoprotein A1, human, residues 15-23; The presenting allele is assigned by NetMHCpan 4.1 prediction (rank <= 2; printed rank 1.625); source: peptide pulsed on T2 cells (JNFAT assay); copies: + +

[10] = molecular target: T10, HLA-A*02:01 in complex with peptide ILF2_(127-135) (…) (Homo sapiens, HLA-A*02:01)
T10 construct: HLA class I heavy chain, allele HLA-A*02:01, human; beta-2-microglobulin, human; The presenting allele is assigned by NetMHCpan 4.1 prediction (rank <= 2); source: peptide pulsed on T2 cells (JNFAT assay); copies: + +

[11] = molecular target: T11, HLA-A*02:01 in complex with peptide RBM4B_(59-67) (…) (Homo sapiens, HLA-A*02:01)
T11 construct: HLA class I heavy chain, allele HLA-A*02:01, human; beta-2-microglobulin, human; The presenting allele is assigned by NetMHCpan 4.1 prediction (rank <= 2); also called RMB4B_(59-67); source: peptide pulsed on T2 cells (JNFAT assay); copies: + +

[12] = molecular target: T12, HLA-A*02:01 in complex with peptide RL5_(117-125) (…) (Homo sapiens, HLA-A*02:01)
T12 construct: HLA class I heavy chain, allele HLA-A*02:01, human; beta-2-microglobulin, human; The presenting allele is assigned by NetMHCpan 4.1 prediction (rank <= 2); source: peptide pulsed on T2 cells (JNFAT assay); copies: + +

[13] = molecular target: T13, HLA-A*02:01 in complex with peptide SET_(150-158) (…) (Homo sapiens, HLA-A*02:01)
T13 construct: HLA class I heavy chain, allele HLA-A*02:01, human; beta-2-microglobulin, human; The presenting allele is assigned by NetMHCpan 4.1 prediction (rank <= 2); source: peptide pulsed on T2 cells (JNFAT assay); copies: + +

[14] = molecular target: T14, HLA-A*02:01 in complex with peptide SF3B4_(78-86) (…) (Homo sapiens, HLA-A*02:01)
T14 construct: HLA class I heavy chain, allele HLA-A*02:01, human; beta-2-microglobulin, human; Splicing factor 3B subunit 4, human, residues 78-86; The presenting allele is assigned by NetMHCpan 4.1 prediction (rank <= 2); source: peptide pulsed on T2 cells (JNFAT assay); copies: + +

[15] = molecular target: T15, HLA-A*02:01 in complex with peptide SHC1_(469-477) (…) (Homo sapiens, HLA-A*02:01)
T15 construct: HLA class I heavy chain, allele HLA-A*02:01, human; beta-2-microglobulin, human; The presenting allele is assigned by NetMHCpan 4.1 prediction (rank <= 2); source: peptide pulsed on T2 cells (JNFAT assay); copies: + +

Measured: binding result

B1: ESK1 antibody (antibody, V domains shown)
VH: QMQLVQSGAEVKEPGESLRISCKGSGYSFTNFWISWVRQMPGKGLEWMGRVDPGYSYSTYSPSFQGHVTISADKSTSTAYLQWNSLKASDTAMYYCARVQYSGYYDWFDPWGQGTLVTVSS
VL: not shown
notes: the constant region of the bait antibody is not described for ESK1
binds: [1] | [2] | [3] | [4] | [5] | [6] | [7] | [8] | [9] | [10] | [11] | [12] | [13] | [14] | [15]
